# Test results taken from paper PMC8034652 (Nucleic Acids Research, 2021).
# Residue numbers refer to the chain shown, from its start. Names may count otherwise.
# B1: FOXO1 R225A mutant (domain or fragment)
# chain: KSSSSRRNAWGNLSYADLITKAIESSAEKRLTLSQIYEWMVKSVPYFKDKGDSNSSAGWKNSIRHNLSLHSKFIAVQNEGTGKSSWWMLNPEGGKSGKSPRRRAASMDNNSKFAKS
# B2: FOXO1 Q227A mutant (domain or fragment)
# chain: B1 chain with A75R, Q77A
# Molecular target: the molecule itself
# Assay: native gel or EMSA
row,Protein,binding result
1,B1,binds
2,B2,binds
